Reference: EP1618130B1

Target: HLA-A2 (human)

Substance: HLA-A2 high affinity positive control epitope from HIV-1 pol476-484 ([…]) (peptide)
- C50: 0.2 µM
